Data taken from patent publication US20170145086A1 (VISTERRA, published 2017).
Positions count from the first letter of the chain named. Values belong to the binder of their own block, whether it stands above or below them.

Experiments:
pur. muAPRIL = target: T1, pur. muAPRIL (Mus musculus, UniProt Q9D777); assay: ELISA, purified APRIL control
T1 sequence (APRIL monomer, looked up): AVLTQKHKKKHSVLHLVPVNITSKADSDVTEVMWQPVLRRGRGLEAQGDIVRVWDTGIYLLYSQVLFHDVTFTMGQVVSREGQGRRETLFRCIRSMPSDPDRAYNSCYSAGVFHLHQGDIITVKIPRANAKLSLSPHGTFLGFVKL
Description: (§1) Antibody binding to human and mouse variants was assessed by ELISA. […] FLAG-tagged APRIL was captured from cell culture media using anti-FLAG antibody. The results are shown in FIGS. 23A-23B, 24A-24B, and 25A-25B. Differentiated epitope mapping of exemplary anti-APRIL antibodies was performed by site directed mutagenesis. Primary characterization of human APRIL binding site was carried out by site-directed mutagenesis of select amino acid positions within APRIL followed by evaluation of antibody binding to these variants by ELISA.

[1] = target: human TNFα (TNFSF2; Adipogen) (human, UniProt P01375 85-233, limits assumed); assay: indirect ELISA, cytokine coated
human TNFα (TNFSF2; Adipogen), sequence (P01375 85-233 limits assumed): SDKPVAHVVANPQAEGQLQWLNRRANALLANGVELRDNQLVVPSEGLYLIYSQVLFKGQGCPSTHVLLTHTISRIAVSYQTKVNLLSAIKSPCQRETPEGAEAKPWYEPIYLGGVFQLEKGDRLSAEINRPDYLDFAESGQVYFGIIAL
Description: (§2) Selected anti-APRIL antibodies were evaluated for potential cross-reactivity with other members of the TNFa superfamily (TNFSF) family of cytokines, including: human TNFα (TNFSF2; Adipogen), human […] (TNFSF4, Adipogen), human FasL (TNFSF6, Adipogen), human TRAIL (TNFSF10, Adipogen), human RANKL (TNFSF11; Adipogen), human Tweak (TNFSF12; Abcam), human and mouse BAFF (TNFSF13B, AB Biosciences and Adipogen, respectively), and human LIGHT (TNFSF14, Adipogen). These cytokines share variable degree of sequence as well as higher order structural homologies. Among them, BAFF appears to be the most closely related to APRIL, with 29% identity and 53% amino acid sequence similarity.
(§3) Binding was evaluated by an indirect ELISA protocol using similar methods described for evaluation of APRIL binding; cytokines were immobilized to ELISA plate at 50 ng per well and then exposed to a solution of each of the test antibodies at a fixed concentration of 10 μg/ml Anti-human or anti-mouse Ig-HRP polyclonal antibody conjugates (Jackson Laboratories) were used for detection of antibody binding. The results presented in FIG. 36 indicated eleven of the twelve antibodies tested in this assay to specifically bind APRIL with no measurable cross-reactivity with the other TNFSF members substantially above assay background.

[2] = target: T2, human FasL (TNFSF6, Adipogen) (human, UniProt P48023 103-281, limits assumed); assay: indirect ELISA, cytokine coated
T2 sequence (looked up): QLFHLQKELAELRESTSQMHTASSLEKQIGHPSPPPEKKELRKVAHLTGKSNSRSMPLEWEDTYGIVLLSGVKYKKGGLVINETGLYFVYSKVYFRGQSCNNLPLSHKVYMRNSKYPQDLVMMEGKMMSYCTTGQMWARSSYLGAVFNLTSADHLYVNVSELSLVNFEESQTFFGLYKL
Description: as §2, §3

[3] = target: human TRAIL (TNFSF10, Adipogen) (human, UniProt P50591 95-281, limits assumed); assay: indirect ELISA, cytokine coated
human TRAIL (TNFSF10, Adipogen), sequence (P50591 95-281 limits assumed): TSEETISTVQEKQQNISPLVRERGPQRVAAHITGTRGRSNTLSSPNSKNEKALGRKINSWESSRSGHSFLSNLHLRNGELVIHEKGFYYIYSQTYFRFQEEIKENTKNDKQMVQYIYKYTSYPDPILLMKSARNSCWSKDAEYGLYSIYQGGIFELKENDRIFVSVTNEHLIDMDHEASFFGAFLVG
Description: as §2, §3

[4] = target: T3, human RANKL (TNFSF11; Adipogen) (human, UniProt O14788 152-317, limits assumed); assay: indirect ELISA, cytokine coated
T3 sequence (looked up): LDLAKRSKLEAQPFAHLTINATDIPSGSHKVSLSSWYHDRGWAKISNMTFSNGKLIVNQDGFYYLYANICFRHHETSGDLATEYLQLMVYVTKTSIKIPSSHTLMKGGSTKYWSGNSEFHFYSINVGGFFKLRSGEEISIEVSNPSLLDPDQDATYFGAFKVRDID
Description: as §2, §3

[5] = target: T4, human Tweak (TNFSF12; Abcam) (human, UniProt O43508 94-249, limits assumed); assay: indirect ELISA, cytokine coated
T4 sequence (looked up): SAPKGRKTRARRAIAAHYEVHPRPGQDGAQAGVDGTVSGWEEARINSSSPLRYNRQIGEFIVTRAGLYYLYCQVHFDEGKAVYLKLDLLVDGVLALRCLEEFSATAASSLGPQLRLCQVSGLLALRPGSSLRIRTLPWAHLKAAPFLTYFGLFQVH
Description: as §2, §3

[6] = target: human BAFF (TNFSF13B, AB Biosciences) (human, UniProt Q9Y275 134-285, limits assumed); assay: indirect ELISA, cytokine coated
Description: as §2, §3

[7] = target: mouse BAFF (TNFSF13B, Adipogen) (mouse, UniProt Q9WU72 127-309, limits assumed); assay: indirect ELISA, cytokine coated
mouse BAFF (TNFSF13B, Adipogen), sequence (Q9WU72 127-309 limits assumed): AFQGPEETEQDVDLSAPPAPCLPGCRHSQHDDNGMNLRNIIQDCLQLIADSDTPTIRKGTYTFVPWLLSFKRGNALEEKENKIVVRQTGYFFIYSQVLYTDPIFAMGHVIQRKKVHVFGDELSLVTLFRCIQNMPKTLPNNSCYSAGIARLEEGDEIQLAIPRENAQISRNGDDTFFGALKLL
Description: as §2, §3

[8] = target: human LIGHT (TNFSF14, Adipogen) (human, UniProt O43557 89-240, limits assumed); assay: indirect ELISA, cytokine coated
human LIGHT (TNFSF14, Adipogen), sequence (O43557 89-240 limits assumed): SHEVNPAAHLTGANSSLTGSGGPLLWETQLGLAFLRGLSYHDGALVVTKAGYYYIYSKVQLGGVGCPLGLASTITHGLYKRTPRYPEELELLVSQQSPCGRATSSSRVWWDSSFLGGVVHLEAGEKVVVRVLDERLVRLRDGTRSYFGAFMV
Description: as §2, §3

[9] = target: T5, FLAG-tagged mouse APRIL (WT muAPRIL and muAPRIL Mutants) (Mus musculus, UniProt Q9D777); assay: ELISA, FLAG-APRIL captured with anti-FLAG antibody
T5 sequence (APRIL monomer, looked up): T1 sequence (APRIL monomer, looked up)
Description: as §1

[10] = target: T6, HA-GCN4 hAPRIL (amino acid residues 105-250) (human, UniProt O75888 105-250); assay: cell-based or functional assay
T6 sequence: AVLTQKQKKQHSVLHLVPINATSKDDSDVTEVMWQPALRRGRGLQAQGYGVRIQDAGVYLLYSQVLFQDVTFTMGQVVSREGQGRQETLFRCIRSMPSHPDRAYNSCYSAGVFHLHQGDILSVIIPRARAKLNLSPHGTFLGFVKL

[11] = target: T6, HA-GCN4 hAPRIL (amino acid residues …); assay: blocking ELISA; blocked: human APRIL binding to BCMA-Fc
Description: Recombinant TACI-Fc or BCMA-Fc was coated on 96 well plates in 0.1 M carbonate-bicarbonate buffer (pH 9.6), overnight at 4° C. Plates were washed three times with 1×PBST (PBS+0.025% Tween 20) followed by blocking with 1% BSA in 1×PBS, 37° C. for 1 hour. All subsequent wash steps were carried out with 1×PBST. To assess antibody blocking, either 15 ng/mL or 50 ng/mL HA-GCN4-huAPRIL was preincubated with varying antibody concentrations ranging from 0.03-30 μg/mL in binding buffer comprised of 1% BSA and 0.025% Tween-20 in 1×PBS. Preincubation was carried out at 30° C. for 1 hour with mixing. Antibody-APRIL premix with 50 ng/mL APRIL or 15 ng/mL APRIL was then added to TACI-Fc coated or BCMA-Fc coated plates, respectively, and incubated for an additional hour at 30° C. HA-tagged APRIL binding to either receptor was quantified using a goat polyclonal anti-HA tag-HRP antibody (Abcam) added at a 1:10000 dilution followed by colorimetric development using 100 μl/well of freshly prepared TMB substrate (KPL) carried out for up to 30 minutes at room temperature before quenching enzymatic reaction by the addition of 1N sulfuric acid. ELISA signal was quantified by absorbance at 450 nm. ELISA data was analyzed by non-linear regression. IC₅₀ values were calculated based on a 4 parameter fit of antibody titration curves. […] Non-blocking antibodies Aprly-1 or Aprly-5 (Enzo Biosciences) were used as negative controls. Mouse specific, blocking antibody aprily-1-1 (Adipogen) was generally used as a positive control in experiments using mouse APRIL (HA-GCN4-mAPRIL).
Assay is based on receptor blocking ELISA using recombinant human APRIL (R&D Systems) and either human TACI-Fc (FIG. 30A) or BCMA-Fc (FIG. 30B).

[12] = target: T6, HA-GCN4 hAPRIL (amino acid residues …); assay: blocking ELISA; blocked: human APRIL binding to TACI-Fc
[13] = target: T6, HA-GCN4 hAPRIL (amino acid residues …); assay: indirect ELISA on human APRIL; row printed 4504-063, legend paragraph 738 says 4540-063
[14] = target: T7, HA-GCN4 mAPRIL (amino acid residues 96-241) (mouse, UniProt Q9D777 96-241, Assembles as a homotrimer through the GCN4 zipper; one protomer is given.); assay: indirect ELISA on mouse APRIL; row printed 4504-063, legend paragraph 738 says 4540-063
T7 construct: Bought (R&D Systems); also called HA-tagged mouse APRIL (R&D Systems); recombinant mouse APRIL; not shown: N-terminal HA tag and GCN4 isoleucine-zipper trimerisation domain, with any linker, of the bought R&D Systems protein
T7 sequence: T1 sequence (APRIL monomer, looked up)

[15] = target: T8, human APRIL variant V181E (Homo sapiens, UniProt O75888); assay: ELISA on the human APRIL variant V181E [panel V181E]
T8 construct: one of the variants grouped under m24
T8 sequence (APRIL monomer, looked up): T6 sequence with V77E
Description: as §1

binding result (pur. muAPRIL): no binding
binding result [1]: no binding (tested: 10 µg/ml (p-1128))
binding result [2]: no binding (tested: 10 µg/ml (p-1128))
binding result [3]: no binding (tested: 10 µg/ml (p-1128))
binding result [4]: no binding (tested: 10 µg/ml (p-1128))
binding result [5]: no binding (tested: 10 µg/ml (p-1128))
binding result [6]: no binding (tested: 10 µg/ml (p-1128))
binding result [7]: no binding (tested: 10 µg/ml (p-1128))
binding result [8]: no binding (tested: 10 µg/ml (p-1128))
binding result [9]: no binding
B1: monoclonal antibody 4035 (antibody, V domains shown)
VH: QVQLKESGPGLVAPSQSLSITCTVSGFSLTIYDVHWVRQSPGKGLEWLGVIWSDGSTDYNAAFISRLSISKDNSKSQVFFKMNSLQADDTAIYYCARNWVDQAWFAYWGQGTLVTVSA
VL: DIQMTQSPASLSASVGETITITCRASKNIYSYLAWYQQKQGKSPQLLVYNAKTLPEGVPSRFSGSGSGTQFSLKINSLQPEDFGSYYCQHHYGTPLTFGAGTKLELK
notes: mouse-derived

IC50 (inhibition of APRIL-mediated BCMA NFκB signaling) [10]: ~1.04 nM
IC50 (inhibition of APRIL-mediated TACI NFκB signaling) [10]: ~7.19 nM
IC50 [11]: 1.92 nM
Relative Activity (normalised to 2419) [11]: 8.11
IC50 [12]: 0.67 nM
Relative Activity (normalised to 2419) [12]: 2.43
EC50 [13]: 0.00206 nM
EC50 [14]: 0.00156 nM
B2: monoclonal antibody 4540-063 (antibody, IgG1, V domains shown)
VH: QVQLVQSGAELKKPGASVKVSCKASGYTFADYYMNWVRQAPGQGLEWMGWIFPGSGSTYYNQKFQGRVTMTVDKSSSTAYMELSRLRSDDTAVYYCARGDSGRAMDYWGQGTLVTVSS
VL: DIQMTQSPSSLSASVGDRVTITCQASQDINKYLAWYQHKPGKAPKLLIHYTSTLETGVPSRFSGSGSGTDFTFTISSLQPEDIATYYCLQYDNLLTFGGGTKVEIK

binding result [1]: no binding (tested: 10 µg/ml (p-1128))
binding result [2]: no binding (tested: 10 µg/ml (p-1128))
binding result [3]: no binding (tested: 10 µg/ml (p-1128))
binding result [4]: no binding (tested: 10 µg/ml (p-1128))
binding result [5]: no binding (tested: 10 µg/ml (p-1128))
binding result [6]: no binding (tested: 10 µg/ml (p-1128))
binding result [7]: no binding (tested: 10 µg/ml (p-1128))
binding result [8]: no binding (tested: 10 µg/ml (p-1128))
binding result [15]: binds
B3: monoclonal antibody 2419 (antibody, V domains shown)
VH: QVQLQQSGAELVKPGASVRLSCEASGYTFTDYTIHWVKQRSGQGLEWIGWIYPLRGSINYNEKFKDKATLTADKSSSTVYLELGRLTSKDSAVYFCARHGAYYSNAFDYWGQGTTLTVSS
VL: NIVMTQSPASLAVSLGQRATISCRASESVDNDGIRFMHWYQQKPGQPPKLLIYRASNLESGIPARFSGSGSRTDFTLTINPVETDDVATYYCQQSNKDPYTFGGGTKLELK
